Experimental data: a protein production outcome set (Wang et al. 2014)

Assay: label from the status in PepcDB records
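Note: failed if final PepcDB status was selected cloned or expressed and not failed if soluble or beyond.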

Row | Sequence | protein production
1 | MPTVSVKWQKKVLDGIEIDVSLPPYVFKAQLYDLTGVPPERQKIMVKGGLLKDDGDWAAIGVKDGQKLMMMGTADEIVKAPEKAIVFAEDLPEEALATNLGYSAGLVNLGNTCYMNSTVQCLKSVPELKSALSNYSLAARSNDVDQTSHMLTVATRELFGELDRSVLRKKYPQFSQLQNGMHMQQDAEECWTQLLYTLSQSLKAPTSSEGADAVKALFGVNLQSRIKLGVLDNVTDSTVISKCTLHCQESGEESSETESVYSLKCHISHEVNHLHEGLKHGLKGELEKTSPALGRTALYVKESLIDSLPRYLTVQFVRFFWKRESNQKAKILRKVDYPLVLDIFDLCSEDLRKKLEAPRQKLREEEGKKLGLQTSAKSGSKDSDVKMTDAEASANGSGESSTVNPQEGTSSEKETHMTGIYDLVAVLTHKGRSADSGHYVAWVKQESGKWIQYDDDNPSMQREEDITKLSGGGDWHMAYITMYKARFVSM | failed
2 | MKEIDELTIKEYGVDSRILMERAGISVVLAMEEELGNLSDYRFLVLCGGGNNGGDGFVVARNLLGVVKDVLVVFLGKKKTPDCEYNYGLYKKFGGKVVEQFEPSILNEFDVVVDAIFGTGLRGEITGEYAEIINLVNKSGKVVVSVDVPSGIDSNTGKVLRTAVKADLTVTFGVPKIGHILFPGRDLTGKLKVANIGHPVHLINSINRYVITREMVRSLLPERPRDSHKGTYGKVLIIAGSRLYSGAPVLSGMGSLKVGTGLVKLAVPFPQNLIATSRFPELISVPIDTEKGFFSLQNLQECLELSKDVDVVAIGPGLGNNEHVREFVNEFLKTLEKPAVIDADAINVLDTSVLKERKSPAVLTPHPGEMARLVKKTVGDVKYNYELAEEFAKENDCVLVLKSATTIVTDGEKTLFNITGNTGLSKGGSGDVLTGMIAGFIAQGLSPLEASTVSVYLHGFAAELFEQDERGLTASELLRLIPEAIRRLKE | not failed
3 | MKEDAGNPLHLTSLNHVSVLCRSVDESMNFYQKVLGFIPIRRPESLNFEGAWLFGHGIGIHLLCAPEPEKLPKKTAINPKDNHISFQCESMGVVEKKLEEMGIDYVRALVEEGGIQVDQLFFHDPDGFMIEICNCDSLPVVPLVGEMARSCSRVKLHQMVQPQPQTQIHQVVYP | failed
4 | MALMTNKTRALLIGGHGKVALLATPMLIDASVQVTSMYRNPDHRSEIEALGATTLERDVTTLSVEDWADLLKDFDVVVWSAGNGGKNGADATYAIDRDAAIASIDGAASLGEKAPRYIMVSYIGSSTHTIDPSASFYPYAESKKAADEHLSSTNLDYLILAPAALTLDEVNGVEVIADTNEAAAGRTTSRVLVAEVITEFVVRDFPQTRVLPFVDGESPVSSIS | failed
5 | MNQLSRSACTAPQRGGAWQWIACWALLLFTLLVAPLAAAQAVQGNASQEAALTVAPAPRVGVVTMQPGEVFFERFGHDAIVVVDPRTQQATSYNFGFFDPSEPDFVPRFARGDMMYYLVALPLEEDLSQYRDAGRGVSVQWLDLPPDQARALAEGLAVRSQPENARYHYDYFMANCATMVRDTLDRAMGGALKSQLAGRSRGNTFRSEAVRLASPAPWMWLGFDLGLGPYADRPLSRWEEAFVPMRLADSLTQVHNSAGRPLVQSTQVLLPHRIAPEPAEQQRHWWPWLLTGLIVAAGVLALGRRQRLLAGLALPFWLLCAIGGGLLVYLWGFTAHASAWGNRNLLLVNPLCMLLWFGGIRLQLGHRPGRWFNVLSWVVAACALAALVIHWLSFQAQDNLQWVMLLLPIHTALAIALRLRDLPVRTR | failed
6 | MSLAKPIEAHTVSPVNPNAQQTTKTVMNWLAHLPNRTENRVLSGAFGGYSHDTFSMAEADRIRSATGQSPAIYGCDYARGWLETANIEDSIDVSCNGDLMSYWKNGGIPQISLHLANPAFQSGHFKTPITNDQYKKILDSSTVEGKRLNAMLSKIADGLQELENQGVPVLFRPLHEMNGEWFWWGLTSYNQKDNERISLYKQLYKKIYHYMTDTRGLDHLIWVYSPDANRDFKTDFYPGASYVDIVGLDAYFQDAYSINGYDQLTALNKPFAFTEVGPQTANGSFDYSLFINAIKQKYPKTIYFLAWNDEWSAAVNKGASALYHDSWTLNKGEIWNGDSLTPIVEEGHHHHHH | not failed
7 | MIRDVNDNKKKKVDEILSIVKVSSLLFSAMAFLQYTFNLTKYNNKFLAYYSILSILISIFLLSTIYILWSLASLNKYKDHINKIQLIEIILFMIIFIMAILVSGGNSSNNKFLFLFIIITSTIQGGMHRGCVVSVVSSAIILAIDLIFSGNADVNIYFQNDLILAGVFVLTAWTLGFYVKTENDHIKELQTLVNEDGLTGVYNHRYFYDKLREKMHISEVENEKLSLIFMDIDYFKHYNDLYGHQKGDEALKKIGKLLKNIARENDLVARYGGEEFAIILPNTSEEEATKIAERIRNKVEKTYFEGQENQPNANFTVSVGIAVFPDKAKSELELVKCADDALYRAKFFHKNRVETYVSVLDELKRDLNEEENALVASIKTLISIINAKDKYTYSHVERVVIYSRLMAKKLGLSEDEKKQLIYGAYMHDIGKINIPNEILTKKMRLTKEEWEILKQHPKDGVEIIKSVNSLKNVVPLILYHHERYDGFGYPVGLKEKEIPYLARVLTVIDSFDAMTSSRPYNKRKTYDEGLIELERCSGTQFDPEIVGIFSEVVKENINEIQDF | failed
8 | MQFEVLKRFFPKESLKNCKGALWVHTASIGEFNTFLPILKELKREHRILLTYFSPRAREYLKTKSDFYDCLHPLPLDNPFSVKRFEELSKPKALIVVEREFWPSLIIFTKVPKILVNAYAKGSLIEKILSKKFDLIIMRTQEDVEKFKTFGAKRVFSCGNLKFICQKGKGIKLKGEFIVAGSIHTGEVEIILKAFKEIKKTYSSLKLILVPRHIENAKIFEKKARDFGFKTSFFENLEGDVILVDRFGILKELYPVGKIAIVGGTFVNIGGHNLLEPTCWGIPVIYGPYTHKVNDLKEFLEKEGAGFEVKNETELVTKLTELLSVKKEIKVEEKSREIKGCYLEKLREFLRGL | failed
9 | MMTGLYLGALAGIAVALAVLMAGAWVVQQLTGNSGWVDTIWTFSLGLTGAVSSLWPIDGAAPDARQWLVAVLVATWSLRLGSHIAARTRHITDDPRYAAYAAQWGTDAPKRMFFFLQNQAYGTIPLVFAIFVAAHAPAGSLRLQDYLGVLILIVAIAGEGLSDAQLKAFRENSANKGKVCDAGLWRWSRHPNYFFQWFGWLAYPVIAIPFAEPLSYLWGYAALLAPLFMYWILVYVTGIPPLEEQMLKSRGDRYRDYQARTSMFFPLPPRRSATL | failed
10 | MSKANVYQQRPEPGVHAESPLHHAELHKLAGKTAAKAGIVLREKKLLGHLVLRGDAADPAFAAAVHQALGLELPVALTLVASGETSLQWLAPDEWLLIVPGGEEYAVEQRLRQALGEELHYAVVNVSGGQTLLELSGANVRELLMKSTSYDVHPSNFPVGKAVGSIFAKSQCVIRHTGEDTWELVVRRSFADYFWLWLQDASAEYGLQVAA | failed
11 | MTETKPRIAIRYCTQCNWLLRAGWMAQEILQTFASDIGEVSLIPSTGGLFEITVDGTIIWERKRDGGFPGPKELKQRIRDLIDPERDLGHVDRTKHEGLDTLEHHHHHH | not failed
12 | MSKRSEVLEQFHGGLKNLELQTKRRMGLWGDPKENEEQTLFLEEIENELKQLENKENLKADNNTEFKEENQDTKENQPNDLFSLPLPTQTTINGIKEFVEEPVIETEKKETSQNEPIQEKKERIFKNFFSRIGFDKSIAPTMLFEEVRDASVIYHLEKKLGDYIFYVACFFFGTTALLIILLTILLPLKQKEPYLVQFSNNKENFALVQKADSSITANKALIRSLVGAYVLNRESITHIEQHEKMRQNTIKEQSSNEVWYEFEKLIAHYDSIYTNPLLTRKVKIANIYLDKDLAYIDIEVSLYHSGELESLKRYKVVMSFEFKKQEINFDSMSLNPTGFMVTSYDVTEIAIVNYPTAKAIGLFLAS | failed
13 | MIRQKSIRRVKPPEDYQARLATPFAVLGLRTDEDWLTDIEYLPPDTPTLVPQTPLAREVCDQLQAYLADPGFVFDLSLHIGGTVHQRRVWQAIQDIPAGATRSYAAIAVELHSAPRAVGQACGANRLPIVIPCHRVIAKSGGLGGFMNASDGLPLTIKRWLLQHEGI | failed
14 | MSLKHVVVIGAVALGPKAACRFKRLDPEAHVTMIDQASRISYGGCGIPYYVSGEVSNIESLQATPYNVVRDPEFFRINKDVEALVETRAHAIDRAAHTVEIENLRTGERRTLKYDKLVLALGSKANRPPVEGMDLAGVTPVTNLDEAEFVQHAISAGEVSKAVIVGGGFIGLEMAVSLADMWGIDTTVVELADQIMPGFTSKSLSQMLRHDLEKNDVVVHTGEKVVRLEGENGKVARVITDKRTLDADLVILAAGVSPNTQLARDAGLELDPRGAIIVDTRMRTSDPDIFAGGDCVTIPNLVTGKPGFFPLGSMANRQGRVIGTNLADGDATFPGAVGSWAVKLFEGSASGAGLTVEGALREGYDAVNVHVEQFDRAHFYPEKTIMTLQLVVDRPTRRVLGIQGFSTLGDALTARINAVATMLASKPTVEDISNAEVVYSPPFASAMDIVNVAGNVADNVLAGREGHHHHHH | not failed
15 | METNQLRGIFYMMAAMLLISVQEALAKYLGQALPVAQVVWARYLGHLVLMIILLWPKNGMSLLKTNKLFIQIARSLILLIDTVLFFFGLTMLGLAEATAIFFTVPLLVLLLSIPLLGERVSASSIVAVIVGFIGTLIIVRPGINGLGSSDLGIGALFIFGAACCTAIYNVTTRKLSASEPIPVTLFYTAIVGAVVTSLFLPFIWETPTSLEVWAALIFIGLFGGSAHSLIIISHKYAAATTVAPFIYSQIFWALGLGWLMFGELPDFYVYFGGAIVISSGLYLFYHGRTRVNTASQQLGKDPLLVNAAKIKALQNRP | failed
16 | GSIPRVLISADRSSSGKTTISMGLMAALVSRGYKVQPFKVALDYIDPSYHTEITGRFCRNLDGYLMDEHGILDVYTHACETGGGADIAIIEGVRGLFEGFESLSDVGSTAQIAKILKCPVVFVINARSITRSAAALIGGYKNFDPDVEIAGVILNNIGGRRHAQKAKEAIEHYTGVPVLGIIPRDPSMQISMRHLGLMPALEGRRRFGDGGFENRLHGIEEIINKGIDVDRFLGIAESAKPLTALENSIFSPAVNENSQKPKIGVALDEAFNFYYRDNIDLLEIAGAEIVYFSPVNDPGLPEVDGLYIGGGYPELFAAELEANETMRKSIKEASAAGMPIYAECGGLMYLTEKISTGVPGKGTYHDASMPESTYSMVGALPGHTIMGQTRVVSYNIGTLARDCPIGKKGNSFKGHEFHHSEILEIPDDAEFAIALTRGTGIRGDRDGLIVNNTIGSYAHLHGVAYRELAGSLVEAARKFRDS | failed
17 | MTELDQFWPACLARLEAELSSQQFNTWIKPLTAEAGDEGIALFAPNRFIMQFIKDRFLPRIEELAVELVGELPVELRLGAPTARPAAPVAGNSQPKAKEPAKAAASAPAAPSPAKQAAVKAIGGSHESTRLNPSFTFDTLVTGKGNQLARAAAMQIAENPGDQAYNPLFVYGGVGLGKTHLIQAIGNHVFQKNPQAKIRYIHAERYVADIMRAYQHKAFDEFKRYYHSLDLLLIDDIQFFAGKNRTQEEFFYAFNALIEGGKQVIMTCDSYPKQIEGMEERLISRFSWGLTVEIQPPELEMRVAILMKKAEADSIKLEHNVAFFIAQNVRSNVRELEGALKRVVAYARFTSQNITLELVKEALKDILAAGNRQVTVDAIQKTVAEYYKIKLSDMHSKKRSRDIARPRQVAMALAKELTQLSLPNIGDAFGGRDHTTVLHACKTITEMRASDADIAHDYEALLSMLRNLEHHHHHH | failed
18 | MTDIHPREILICTIAKLLDGVRHVAVGASSPIPASGAMLLRALKQQAGETGPRISILGSVEHNFFTNGSAELFDCAGQGRIDAFFLGGGQIDGQGNINLVGTGEYPQTQVRWPGSFGSAYLYYVVPRVILFREEHTPRAMVEKVDFISAPGLSDEGVYRPGGPIALLTSKALFRFDKNRRGFELESVHPGYDLAAIKEATGFKFAHDDVPAQTALPDPQVLKLLRERVYDEVAETYPDFAAQMRREIAQPLPRAS | failed
